Holding throughout (experiment): SPR, Biacore 3000; receptor captured on chip, ligand in solution
For test [1], the target named is T1, growth differentiation factor 11 (GDF11) (UniProt O95390 299-407).
T1 construct: the embodiments speak of human GDF-11
T1 sequence (looked up): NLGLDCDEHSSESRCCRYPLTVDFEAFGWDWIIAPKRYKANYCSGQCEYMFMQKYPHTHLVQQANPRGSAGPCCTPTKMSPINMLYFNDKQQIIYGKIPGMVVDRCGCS
An excerpt: (§1) The Biacore 3000 was used to measure the kinetics of the interactions between the ActRIIa variants and the ligands Activin A, Activin B, growth differentiation factor 11 (GDF11), and BMP-9. ActRIIa variants were transiently expressed in HEK293 cells and purified from the conditioned media using Protein-A Sepharose chromatography. The ActRIIa variants were immobilized on the chip (CM4 or CM5) with capture antibodies ([…]) in flow cells 2-4 to ensure proper orientation. Flow cell 1 was used as a reference cell to subtract any nonspecific binding and bulk effects. HBS-EP+ buffer from GE Healthcare™ was used as a running buffer. Each ligand was run in a concentration series at 40 μl/min to avoid mass transport effects. The data was analyzed using Scrubber2 by BioLogic™ Software to calculate the KD of each interaction (Table 5).

In test [2] the target is T2, BMP-9 (UniProt Q9UK05 320-429).
T2 construct: the embodiments speak of human BMP9; also called bone morphogenetic protein 9
T2 sequence (looked up): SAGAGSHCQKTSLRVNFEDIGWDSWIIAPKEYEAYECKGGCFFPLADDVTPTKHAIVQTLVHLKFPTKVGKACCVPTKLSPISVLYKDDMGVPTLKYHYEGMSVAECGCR
Source text: as §1

For test [3], the target named is T3, Activin B (UniProt P09529 293-407).
T3 construct: the embodiments speak of human activin B
T3 sequence (looked up): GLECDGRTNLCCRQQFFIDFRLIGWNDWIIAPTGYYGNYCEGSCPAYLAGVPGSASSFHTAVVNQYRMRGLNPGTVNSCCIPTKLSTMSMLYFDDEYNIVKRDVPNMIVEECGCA
Source text: as §1

Test [4] concerns the target T4, Activin A (UniProt P08476 311-426).
T4 construct: the embodiments speak of human activin A
T4 sequence (looked up): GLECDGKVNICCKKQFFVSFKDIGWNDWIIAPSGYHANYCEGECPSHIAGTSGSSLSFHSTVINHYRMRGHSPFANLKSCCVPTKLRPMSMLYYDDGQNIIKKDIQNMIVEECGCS
Source text: as §1

B1: ActRIIa/b+ variant (SEQ ID NO: 150) (receptor, not shown: a dimerising Fc or GST)
chain: GAILGRSETQECLFYNANWELERTNQTGVERCEGEKDKRLHCYATWRNISGSIEIVAKGCWLDDFNCYDRTDCVETEENPQVYFCCCEGNMCNEKFSYFPEMEVTQPTS
As to B1, the binding result in test [1] is given as “binds”.

B2: ActRIIa/bΔ9 min variant (SEQ ID NO: 6) (receptor, not shown: a dimerising Fc or GST)
chain: AILGRSETQECLFYNANWELDRTNQTGVEPCEGEKDKRLHCFATWKNISGSIEIVKKGCWLDDINCYDRTDCVETKENPQVYFCCCEGNMCNEKFSYFPEMEVTQPTS
notes: Engineered variant of the human ActRIIa extracellular portion
Consider B2, for which the Kd in test [1] worked out at 0.114 nM; in test [2], 17 nM; in test [3], 0.088 nM; in test [4], 0.31 nM.

The values above are taken from US20210030841A1 (KEROS THERAPEUTICS, published 2021).
